B1: Protein DDI1 homolog 1 (Homo sapiens), Q8WTU0 (parent)
chain: MLITVYCVRRDLSEVTFSLQVSPDFELRNFKVLCEAESRVPVEEIQIIHMERLLIEDHCSLGSYGLKDGDIVVLLQKDNVGPRAPGRAPNQPRVDFSGIAVPGTSSSRPQHPGQQQQRTPAAQRSQGLASGEKVAGLQGLGSPALIRSMLLSNPHDLSLLKERNPPLAEALLSGSLETFSQVLMEQQREKALREQERLRLYTADPLDREAQAKIEEEIRQQNIEENMNIAIEEAPESFGQVTMLYINCKVNGHPLKAFVDSGAQMTIMSQACAERCNIMRLVDRRWAGVAKGVGTQRIIGRVHLAQIQIEGDFLQCSFSILEDQPMDMLLGLDMLRRHQCSIDLKKNVLVIGTTGTQTYFLPEGELPLCSRMVSGQDESSDKEITHSVMDSGRKEH
partner: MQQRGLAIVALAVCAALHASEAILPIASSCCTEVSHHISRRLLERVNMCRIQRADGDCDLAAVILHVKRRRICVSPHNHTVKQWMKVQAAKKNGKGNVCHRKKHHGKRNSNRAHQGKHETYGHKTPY
B2: Programmed cell death 6-interacting protein (Homo sapiens), Q8WUM4 (parent)
chain: MATFISVQLKKTSEVDLAKPLVKFIQQTYPSGGEEQAQYCRAAEELSKLRRAAVGRPLDKHEGALETLLRYYDQICSIEPKFPFSENQICLTFTWKDAFDKGSLFGGSVKLALASLGYEKSCVLFNCAALASQIAAEQNLDNDEGLKIAAKHYQFASGAFLHIKETVLSALSREPTVDISPDTVGTLSLIMLAQAQEVFFLKATRDKMKDAIIAKLANQAADYFGDAFKQCQYKDTLPKEVFPVLAAKHCIMQANAEYHQSILAKQQKKFGEEIARLQHAAELIKTVASRYDEYVNVKDFSDKINRALAAAKKDNDFIYHDRVPDLKDLDPIGKATLVKSTPVNVPISQKFTDLFEKMVPVSVQQSLAAYNQRKADLVNRSIAQMREATTLANGVLASLNLPAAIEDVSGDTVPQSILTKSRSVIEQGGIQTVDQLIKELPELLQRNREILDESLRLLDEEEATDNDLRAKFKERWQRTPSNELYKPLRAEGTNFRTVLDKAVQADGQVKECYQSHRDTIVLLCKPEPELNAAIPSANPAKTMQGSEVVNVLKSLLSNLDEVKKEREGLENDLKSVNFDMTSKFLTALAQDGVINEEALSVTELDRVYGGLTTKVQESLKKQEGLLKNIQVSHQEFSKMKQSNNEANLREEVLKNLATAYDNFVELVANLKEGTKFYNELTEILVRFQNKCSDIVFARKTERDELLKDLQQSIAREPSAPSIPTPAYQSSPAGGHAPTPPTPAPRTMPPTKPQPPARPPPPVLPANRAPSATAPSPVGAGTAAPAPSQTPGSAPPPQAQGPPYPTYPGYPGYCQMPMPMGYNPYAYGQYNMPYPPVYHQSPGQAPYPGPQQPSYPFPQPPQQSYYPQQ
partner: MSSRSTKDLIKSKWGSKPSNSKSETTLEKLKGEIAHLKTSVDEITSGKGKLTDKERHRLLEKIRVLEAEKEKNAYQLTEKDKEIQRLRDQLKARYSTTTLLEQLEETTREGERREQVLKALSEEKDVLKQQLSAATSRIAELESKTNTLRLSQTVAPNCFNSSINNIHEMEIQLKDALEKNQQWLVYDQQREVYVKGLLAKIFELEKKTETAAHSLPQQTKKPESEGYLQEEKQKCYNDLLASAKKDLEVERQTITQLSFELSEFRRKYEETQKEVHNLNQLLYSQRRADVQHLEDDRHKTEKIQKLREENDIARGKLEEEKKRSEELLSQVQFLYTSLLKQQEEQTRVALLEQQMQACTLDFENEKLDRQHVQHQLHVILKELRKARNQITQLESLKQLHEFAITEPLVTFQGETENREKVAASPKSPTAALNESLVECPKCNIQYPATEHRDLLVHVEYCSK
B3: Methylthioribulose-1-phosphate dehydratase (Homo sapiens), Q96GX9 (parent)
chain: MSGCDAREGDCCSRRCGAQDKEHPRYLIPELCKQFYHLGWVTGTGGGISLKHGDEIYIAPSGVQKERIQPEDMFVCDINEKDISGPSPSKKLKKSQCTPLFMNAYTMRGAGAVIHTHSKAAVMATLLFPGREFKITHQEMIKGIKKCTSGGYYRYDDMLVVPIIENTPEEKDLKDRMAHAMNEYPDSCAVLVRRHGVYVWGETWEKAKTMCECYDYLFDIAVSMKKVGLDPSQLPVGENGIV
B4: Ribosome biogenesis protein SLX9 homolog (Homo sapiens), Q9NSI2 (parent)
chain: MGKVRGLRARVHQAAVRPKGEAAPGPAPPAPEATPPPASAAGKDWAFINTNIFARTKIDPSALVQKLELDVRSVTSVRRGEAGSSARSVPSIRRGAEAKTVLPKKEKMKLRREQWLQKIEAIKLAEQKHREERRRRATVVVGDLHPLRDALPELLGLEAGSRRQARSRESNKPRPSELSRMSAAQRQQLLEEERTRFQELLASPAYRASPLVAIGQTLARQMQLEDGGQL
partner: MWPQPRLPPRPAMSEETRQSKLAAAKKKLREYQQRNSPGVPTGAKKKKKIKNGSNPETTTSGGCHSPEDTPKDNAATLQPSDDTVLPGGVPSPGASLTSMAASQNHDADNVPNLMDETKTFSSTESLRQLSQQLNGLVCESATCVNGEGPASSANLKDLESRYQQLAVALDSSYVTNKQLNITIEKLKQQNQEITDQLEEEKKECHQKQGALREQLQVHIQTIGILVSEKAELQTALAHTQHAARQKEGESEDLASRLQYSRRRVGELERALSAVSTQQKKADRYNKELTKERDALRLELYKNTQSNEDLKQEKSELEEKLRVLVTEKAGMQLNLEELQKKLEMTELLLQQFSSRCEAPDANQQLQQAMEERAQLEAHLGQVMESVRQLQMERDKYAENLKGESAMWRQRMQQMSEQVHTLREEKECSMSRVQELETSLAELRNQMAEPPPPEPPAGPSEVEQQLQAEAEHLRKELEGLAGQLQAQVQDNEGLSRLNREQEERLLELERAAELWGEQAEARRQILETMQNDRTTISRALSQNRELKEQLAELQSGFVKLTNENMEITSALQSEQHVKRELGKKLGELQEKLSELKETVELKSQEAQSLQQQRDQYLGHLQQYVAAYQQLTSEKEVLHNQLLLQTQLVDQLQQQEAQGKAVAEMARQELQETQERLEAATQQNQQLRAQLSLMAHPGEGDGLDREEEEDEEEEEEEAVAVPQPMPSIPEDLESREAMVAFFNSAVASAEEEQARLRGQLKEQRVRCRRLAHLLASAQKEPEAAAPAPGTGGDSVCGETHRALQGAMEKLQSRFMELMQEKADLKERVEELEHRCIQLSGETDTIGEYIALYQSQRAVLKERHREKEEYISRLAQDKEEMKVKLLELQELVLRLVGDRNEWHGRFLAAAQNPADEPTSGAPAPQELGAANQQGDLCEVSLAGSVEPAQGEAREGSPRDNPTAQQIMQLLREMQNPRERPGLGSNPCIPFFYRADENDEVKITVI
B5: Myotubularin-related protein 9 (Homo sapiens), Q96QG7 (parent)
chain: MEFAELIKTPRVDNVVLHRPFYPAVEGTLCLTGHHLILSSRQDNTEELWLLHSNIDAIDKRFVGSLGTIIIKCKDFRIIQLDIPGMEECLNIASSIEALSTLDSITLMYPFFYRPMFEVIEDGWHSFLPEQEFELYSSATSEWRLSYVNKEFAVCPSYPPIVTVPKSIDDEALRKVATFRHGGRFPVLSYYHKKNGMVIMRSGQPLTGTNGRRCKEDEKLINATLRAGKRGYIIDTRSLNVAQQTRAKGGGFEQEAHYPQWRRIHKSIERYHILQESLIKLVEACNDQTHNMDRWLSKLEASNWLTHIKEILTTACLAAQCIDREGASILIHGTEGTDSTLQVTSLAQIILEPRSRTIRGFEALIEREWLQAGHPFQQRCAQSAYCNTKQKWEAPVFLLFLDCVWQILRQFPCSFEFNENFLIMLFEHAYASQFGTFLGNNESERCKLKLQQKTMSLWSWVNQPSELSKFTNPLFEANNLVIWPSVAPQSLPLWEGIFLRWNRSSKYLDEAYEEMVNIIEYNKELQAKVNILRRQLAELETEDGMQESP
partner: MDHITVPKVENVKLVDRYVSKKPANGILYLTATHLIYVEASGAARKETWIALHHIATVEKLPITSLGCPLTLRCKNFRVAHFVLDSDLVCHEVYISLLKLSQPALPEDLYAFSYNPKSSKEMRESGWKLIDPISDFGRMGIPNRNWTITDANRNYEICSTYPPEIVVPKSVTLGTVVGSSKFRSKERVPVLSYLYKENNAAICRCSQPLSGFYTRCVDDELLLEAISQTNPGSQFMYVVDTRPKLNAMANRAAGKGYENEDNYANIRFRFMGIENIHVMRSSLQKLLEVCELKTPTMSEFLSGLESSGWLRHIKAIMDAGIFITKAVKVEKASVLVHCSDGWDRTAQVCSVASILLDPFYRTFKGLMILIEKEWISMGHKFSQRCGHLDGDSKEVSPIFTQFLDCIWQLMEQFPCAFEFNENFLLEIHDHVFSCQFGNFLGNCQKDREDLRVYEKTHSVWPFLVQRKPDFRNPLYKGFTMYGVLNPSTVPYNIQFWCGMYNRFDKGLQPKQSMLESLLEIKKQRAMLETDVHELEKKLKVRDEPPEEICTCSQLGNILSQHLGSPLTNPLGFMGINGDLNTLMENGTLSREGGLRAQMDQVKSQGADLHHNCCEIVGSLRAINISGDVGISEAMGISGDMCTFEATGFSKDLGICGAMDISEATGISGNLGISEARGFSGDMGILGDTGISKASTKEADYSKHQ
B6: Glutathione S-transferase omega-2 (Homo sapiens), Q9H4Y5 (parent)
chain: MSGDATRTLGKGSQPPGPVPEGLIRIYSMRFCPYSHRTRLVLKAKDIRHEVVNINLRNKPEWYYTKHPFGHIPVLETSQCQLIYESVIACEYLDDAYPGRKLFPYDPYERARQKMLLELFCKVPHLTKECLVALRCGRECTNLKAALRQEFSNLEEILEYQNTTFFGGTCISMIDYLLWPWFERLDVYGILDCVSHTPALRLWISAMKWDPTVCALLMDKSIFQGFLNLYFQNNPNAFDFGLC
B7: Defensin-6 (Homo sapiens), Q01524 (parent)
chain: MRTLTILTAVLLVALQAKAEPLQAEDDPLQAKAYEADAQEQRGANDQDFAVSFAEDASSSLRALGSTRAFTCHCRRSCYSTEYSYGTCTVMGINHRFCCL
B8: BAG family molecular chaperone regulator 5 (Homo sapiens), Q9UL15 (parent)
chain: MDMGNQHPSISRLQEIQKEVKSVEQQVIGFSGLSDDKNYKKLERILTKQLFEIDSVDTEGKGDIQQARKRAAQETERLLKELEQNANHPHRIEIQNIFEEAQSLVREKIVPFYNGGNCVTDEFEEGIQDIILRLTHVKTGGKISLRKARYHTLTKICAVQEIIEDCMKKQPSLPLSEDAHPSVAKINFVMCEVNKARGVLIALLMGVNNNETCRHLSCVLSGLIADLDALDVCGRTEIRNYRREVVEDINKLLKYLDLEEEADTTKAFDLRQNHSILKIEKVLKRMREIKNELLQAQNPSELYLSSKTELQGLIGQLDEVSLEKNPCIREARRRAVIEVQTLITYIDLKEALEKRKLFACEEHPSHKAVWNVLGNLSEIQGEVLSFDGNRTDKNYIRLEELLTKQLLALDAVDPQGEEKCKAARKQAVRLAQNILSYLDLKSDEWEY
B9: Kelch-like protein 3 (Homo sapiens), Q9UH77 (parent)
chain: MEGESVKLSSQTLIQAGDDEKNQRTITVNPAHMGKAFKVMNELRSKQLLCDVMIVAEDVEIEAHRVVLAACSPYFCAMFTGDMSESKAKKIEIKDVDGQTLSKLIDYIYTAEIEVTEENVQVLLPAASLLQLMDVRQNCCDFLQSQLHPTNCLGIRAFADVHTCTDLLQQANAYAEQHFPEVMLGEEFLSLSLDQVCSLISSDKLTVSSEEKVFEAVISWINYEKETRLEHMAKLMEHVRLPLLPRDYLVQTVEEEALIKNNNTCKDFLIEAMKYHLLPLDQRLLIKNPRTKPRTPVSLPKVMIVVGGQAPKAIRSVECYDFEEDRWDQIAELPSRRCRAGVVFMAGHVYAVGGFNGSLRVRTVDVYDGVKDQWTSIASMQERRSTLGAAVLNDLLYAVGGFDGSTGLASVEAYSYKTNEWFFVAPMNTRRSSVGVGVVEGKLYAVGGYDGASRQCLSTVEQYNPATNEWIYVADMSTRRSGAGVGVLSGQLYATGGHDGPLVRKSVEVYDPGTNTWKQVADMNMCRRNAGVCAVNGLLYVVGGDDGSCNLASVEYYNPVTDKWTLLPTNMSTGRSYAGVAVIHKSL

Variants of: B1
Conditions: with ccl28_human CCL28, Q9NRJ3

| Variant | effect of a mutation on the interaction |
| --- | --- |
| S63A | with no effect |
| R87C | with no effect |
| G136S | with no effect |
| R208G | disrupting interaction strength |
| N228T | with no effect |
| D323N | with no effect |

Variants of: B2
Conditions: with cep55_human CEP55, Q53EZ4

| Variant | effect of a mutation on the interaction |
| --- | --- |
| A309T | with no effect |
| G429S | with no effect |
| N550S | with no effect |
| S730L | with no effect |
| G778A | with no effect |

Variants of: B3
Conditions: with ntaq1_human NTAQ1, Q96HA8

| Variant | effect of a mutation on the interaction |
| --- | --- |
| G111A | with no effect |
| M181V | with no effect |

Variants of: B4
Conditions: with goga2_human GOLGA2, Q08379

| Variant | effect of a mutation on the interaction |
| --- | --- |
| T138M | disrupting interaction strength |

Variants of: B5
Conditions: with mtmr8_human MTMR8, Q96EF0

| Variant | effect of a mutation on the interaction |
| --- | --- |
| S126C | with no effect |

Variants of: B5
Conditions: with mtmr8_human MTMR8, Q96EF0
Remark: another data set of the same source

| Variant | effect of a mutation on the interaction |
| --- | --- |
| F127I | with no effect |

Variants of: B6
Conditions: with ap2a_human TFAP2A

| Variant | effect of a mutation on the interaction |
| --- | --- |
| N142D | with no effect |

Variants of: B7
Conditions: with ubql1_human UBQLN1, Q9UMX0
Sequence of ubql1_human UBQLN1, Q9UMX0 (Q9UMX0 whole entry): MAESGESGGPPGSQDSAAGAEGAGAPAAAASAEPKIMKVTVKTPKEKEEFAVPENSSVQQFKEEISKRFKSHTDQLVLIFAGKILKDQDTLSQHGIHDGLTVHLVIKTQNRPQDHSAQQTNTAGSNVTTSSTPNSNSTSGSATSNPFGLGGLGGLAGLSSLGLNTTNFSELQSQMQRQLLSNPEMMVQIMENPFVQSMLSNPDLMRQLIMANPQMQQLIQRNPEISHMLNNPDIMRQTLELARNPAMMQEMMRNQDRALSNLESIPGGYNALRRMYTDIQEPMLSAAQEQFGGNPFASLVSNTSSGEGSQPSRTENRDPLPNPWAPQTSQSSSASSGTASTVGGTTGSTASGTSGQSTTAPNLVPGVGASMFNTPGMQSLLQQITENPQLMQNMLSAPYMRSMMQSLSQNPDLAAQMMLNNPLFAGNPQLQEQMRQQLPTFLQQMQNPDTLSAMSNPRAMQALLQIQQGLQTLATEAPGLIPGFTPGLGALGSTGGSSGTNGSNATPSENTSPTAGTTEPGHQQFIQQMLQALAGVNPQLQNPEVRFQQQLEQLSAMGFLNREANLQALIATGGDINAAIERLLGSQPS

| Variant | effect of a mutation on the interaction |
| --- | --- |
| E35D | with no effect |
| D46E | with no effect |

Variants of: B8
Conditions: with thap1_human THAP1, Q9NVV9
Sequence of thap1_human THAP1, Q9NVV9 (Q9NVV9 whole entry): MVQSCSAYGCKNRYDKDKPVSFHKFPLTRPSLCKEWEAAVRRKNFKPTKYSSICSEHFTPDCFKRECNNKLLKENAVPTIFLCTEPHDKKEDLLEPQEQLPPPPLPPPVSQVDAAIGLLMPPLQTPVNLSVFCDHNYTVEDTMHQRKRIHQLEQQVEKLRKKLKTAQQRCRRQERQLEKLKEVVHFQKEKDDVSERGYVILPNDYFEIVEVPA

| Variant | effect of a mutation on the interaction |
| --- | --- |
| I279L | with no effect |

Variants of: B9
Conditions: with cul3_human CUL3, Q13618

| Variant | effect of a mutation on the interaction |
| --- | --- |
| R228G | disrupting interaction strength |
| C164F | disrupting interaction strength |

Source: IntAct's records for PubMed 31515488
